Results published in patent US20050233963A1 (SCIENCE AND TECHNOLOGY CORPORATION UNM, published 2005).

Tests used:
[1] = molecular target: T1, hsp70 (heat shock protein 70) (UniProt P0DMV8 1-641); assay: far-western, GST fusion probe on blotted 20 ng protein
T1 construct: also called hs70 (printed for both hsp70 and hsc70); pure hsp70

[2] = molecular target: T2, hsc70 (constitutively expressed form of hsp70) (UniProt P11142 1-646); assay: as above
T2 construct: also called hs70 (printed for both hsp70 and hsc70); pure hsc70
T2 sequence (P11142 whole entry): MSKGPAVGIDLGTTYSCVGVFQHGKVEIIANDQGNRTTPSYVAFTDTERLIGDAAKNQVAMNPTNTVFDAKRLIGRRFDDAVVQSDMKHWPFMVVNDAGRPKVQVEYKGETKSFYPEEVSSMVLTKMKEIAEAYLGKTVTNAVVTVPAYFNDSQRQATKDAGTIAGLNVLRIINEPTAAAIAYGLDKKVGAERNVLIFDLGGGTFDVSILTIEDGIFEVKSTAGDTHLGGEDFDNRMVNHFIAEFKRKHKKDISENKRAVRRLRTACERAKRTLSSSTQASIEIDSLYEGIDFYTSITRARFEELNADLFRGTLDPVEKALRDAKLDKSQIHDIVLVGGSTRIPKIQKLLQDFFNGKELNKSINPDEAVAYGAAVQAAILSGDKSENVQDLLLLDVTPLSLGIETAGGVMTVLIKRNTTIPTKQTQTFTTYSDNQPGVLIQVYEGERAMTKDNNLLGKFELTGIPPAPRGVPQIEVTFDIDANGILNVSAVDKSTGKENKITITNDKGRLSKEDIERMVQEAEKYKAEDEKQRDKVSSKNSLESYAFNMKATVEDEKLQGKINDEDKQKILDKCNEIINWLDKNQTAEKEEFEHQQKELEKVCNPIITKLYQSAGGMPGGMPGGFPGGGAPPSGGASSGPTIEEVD

T1 sequence (P0DMV8 whole entry, the tested form may be a part): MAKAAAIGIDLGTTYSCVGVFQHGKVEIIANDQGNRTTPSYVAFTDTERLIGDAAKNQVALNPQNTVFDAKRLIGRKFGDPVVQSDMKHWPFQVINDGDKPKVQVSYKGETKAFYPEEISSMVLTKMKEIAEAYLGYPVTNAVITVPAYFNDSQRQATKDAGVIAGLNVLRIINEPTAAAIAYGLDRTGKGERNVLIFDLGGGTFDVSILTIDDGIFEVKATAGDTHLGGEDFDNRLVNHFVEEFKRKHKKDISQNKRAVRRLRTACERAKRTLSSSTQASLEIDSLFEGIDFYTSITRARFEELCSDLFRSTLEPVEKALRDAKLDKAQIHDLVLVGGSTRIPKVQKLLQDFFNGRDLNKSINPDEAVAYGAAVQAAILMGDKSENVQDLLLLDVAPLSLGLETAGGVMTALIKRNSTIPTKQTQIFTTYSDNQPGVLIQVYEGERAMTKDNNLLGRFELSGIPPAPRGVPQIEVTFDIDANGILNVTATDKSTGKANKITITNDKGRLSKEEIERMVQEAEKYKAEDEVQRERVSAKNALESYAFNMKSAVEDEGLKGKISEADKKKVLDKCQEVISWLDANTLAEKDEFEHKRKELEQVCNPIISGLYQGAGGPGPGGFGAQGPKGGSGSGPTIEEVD

| Binder | binding result [1] | binding result [2] |
| --- | --- | --- |
| GST-UBP C1/2 (a.a. 145-313) (other, UniProt O43765 145-313, looked up, also called C/2; not shown: glutathione S-transferase (GST) fusion partner) VQDCERAICIDPAYSKAYGRMGLALSSLNKHVEAVAYYKKALELDPDNETYKSNLKIAELKLREAPSPTGGVGSFDIAGLLNNPGFMSMASNLMNNPQIQQLMSGMISGGNNPLGTPGTSPSQNDLASLIQAGQQFAQQMQQQNPELIEQLRSQIRSRTPSASNDDQQE | no binding | no binding |
| GST-UBP N1/2 (a.a. 1-145) (other, UniProt O43765 1-145, looked up, not shown: glutathione S-transferase (GST) fusion partner) MDNKKRLAYAIIQFLHDQLRHGGLSSDAQESLEVAIQCLETAFGVTVEDSDLALPQTLPEIFEAAATGKEMPQDLRSPARTPPSEEDSAEAERLKTEGNEQMKVENFEAAVHFYGKAIELNPANAVYFCNRAAAYSKLGNYAGAV | no binding | no binding |
